Laboratory results as given in patent US20240228604A1 (ALCHEMAB THERAPEUTICS, published 2024).

Legend:
[1] = biological target: T1, full-length human UNC5A on fixed HEK293 cells (Retrogenix panel) (human, UniProt Q6ZN44 26-842); assay: Retrogenix cell microarray, fixed HEK293 cells
T1 construct: whole, on cells
T1 sequence (looked up): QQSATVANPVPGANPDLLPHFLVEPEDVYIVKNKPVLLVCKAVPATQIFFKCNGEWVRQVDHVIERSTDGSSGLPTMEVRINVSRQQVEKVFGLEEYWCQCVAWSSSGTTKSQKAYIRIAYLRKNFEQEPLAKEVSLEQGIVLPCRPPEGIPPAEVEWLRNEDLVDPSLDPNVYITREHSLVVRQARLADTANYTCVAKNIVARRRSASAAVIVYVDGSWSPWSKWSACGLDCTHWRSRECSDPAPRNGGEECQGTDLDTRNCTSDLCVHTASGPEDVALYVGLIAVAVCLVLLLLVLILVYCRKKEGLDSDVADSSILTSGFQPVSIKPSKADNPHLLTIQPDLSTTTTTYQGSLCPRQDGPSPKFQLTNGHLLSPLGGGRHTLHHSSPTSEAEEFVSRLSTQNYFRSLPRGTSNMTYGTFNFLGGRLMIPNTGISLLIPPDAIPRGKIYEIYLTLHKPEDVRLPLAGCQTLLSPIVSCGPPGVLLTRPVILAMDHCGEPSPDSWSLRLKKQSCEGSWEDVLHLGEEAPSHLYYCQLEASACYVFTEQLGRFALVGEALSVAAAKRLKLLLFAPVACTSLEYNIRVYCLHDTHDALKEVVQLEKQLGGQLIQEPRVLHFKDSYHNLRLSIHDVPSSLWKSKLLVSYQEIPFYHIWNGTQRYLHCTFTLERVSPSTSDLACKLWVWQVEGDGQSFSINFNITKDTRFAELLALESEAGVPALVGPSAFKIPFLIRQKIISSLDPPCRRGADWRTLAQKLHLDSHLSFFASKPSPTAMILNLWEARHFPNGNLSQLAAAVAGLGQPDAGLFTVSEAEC

[2] = biological target: T2, full-length human DSCAM on fixed HEK293 cells (Retrogenix panel) (human, UniProt O60469 18-2012); assay: Retrogenix cell microarray, fixed HEK293 cells
T2 construct: whole, on cells

[3] = biological target: T3, Human recombinant UNC5D (BLI antigen) (Human, UniProt Q6UXZ4 33-379); assay: BLI, antigen captured by His tag, antibody as analyte
T3 construct: also called UNC5D ectodomain
From the text: (§1) Antigen was loaded as ligand and dipped into antibody as analyte during association, and assay buffer during dissociation.
(§2) Purified recombinant antigens were purchased from a commercial supplier or prepared and purified in-house and details are shown in Table 2.

[4] = biological target: T4, Human recombinant DCC (BLI antigen) (Human, UniProt P43146 26-1097); assay: as above
T4 construct: also called Netrin receptor DCC ectodomain
From the text: as §1, §2

[5] = biological target: T5, Human recombinant UNC5B (BLI antigen) (Human, UniProt Q8IZJ1 27-377); assay: as above
T5 construct: also called UNC5B ectodomain
From the text: as §1, §2

[6] = biological target: T6, Human recombinant UNC5A (BLI antigen) (Human, UniProt Q6ZN44 26-306); assay: as above
T6 construct: Captured by His tag; also called UNC5A ectodomain
From the text: as §1, §2

[7] = biological target: T7, Human Neogenin (R&D Systems catalogue number 8607-NE; BLI antigen) (Human, UniProt Q92859 34-1105); assay: as above
T7 construct: extracellular domain; Bought protein; also called neogenin-1 ectodomain; NEO1
T7 sequence (looked up): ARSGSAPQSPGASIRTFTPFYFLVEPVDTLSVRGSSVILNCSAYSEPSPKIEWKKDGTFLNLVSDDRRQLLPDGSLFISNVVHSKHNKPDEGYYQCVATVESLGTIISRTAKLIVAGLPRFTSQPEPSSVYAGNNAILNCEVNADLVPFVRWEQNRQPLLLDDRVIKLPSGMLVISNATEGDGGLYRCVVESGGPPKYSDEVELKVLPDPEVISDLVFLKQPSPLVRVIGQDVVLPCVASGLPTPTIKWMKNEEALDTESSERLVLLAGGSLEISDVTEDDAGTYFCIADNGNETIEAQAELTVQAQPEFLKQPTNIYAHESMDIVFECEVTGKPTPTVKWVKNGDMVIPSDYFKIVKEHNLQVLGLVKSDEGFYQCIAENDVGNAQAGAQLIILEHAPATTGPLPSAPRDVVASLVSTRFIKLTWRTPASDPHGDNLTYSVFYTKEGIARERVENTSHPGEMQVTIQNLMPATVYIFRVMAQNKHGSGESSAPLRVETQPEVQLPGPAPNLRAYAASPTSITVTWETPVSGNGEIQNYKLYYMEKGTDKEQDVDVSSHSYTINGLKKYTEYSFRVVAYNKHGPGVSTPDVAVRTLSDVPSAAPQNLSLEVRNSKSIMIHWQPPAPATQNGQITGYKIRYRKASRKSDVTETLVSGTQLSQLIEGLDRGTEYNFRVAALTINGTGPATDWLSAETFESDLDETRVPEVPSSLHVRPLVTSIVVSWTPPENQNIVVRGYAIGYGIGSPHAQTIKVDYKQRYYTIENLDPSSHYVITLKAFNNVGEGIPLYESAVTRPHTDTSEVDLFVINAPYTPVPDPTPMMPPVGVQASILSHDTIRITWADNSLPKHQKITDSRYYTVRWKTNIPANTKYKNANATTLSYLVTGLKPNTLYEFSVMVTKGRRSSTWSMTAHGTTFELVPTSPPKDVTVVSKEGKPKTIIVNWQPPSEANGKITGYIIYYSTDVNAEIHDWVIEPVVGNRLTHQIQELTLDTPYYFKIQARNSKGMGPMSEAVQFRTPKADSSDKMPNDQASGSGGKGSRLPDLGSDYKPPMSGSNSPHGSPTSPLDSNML
From the text: as §1, §2

[8] = biological target: T8, UNC5C recombinant human antigen, Fc-tagged (R&D Systems, #1005-UN) (human, UniProt O95185 41-380, limits assumed); assay: ELISA, antigen down
T8 construct: Bought protein; also called rhUNC5C; not shown: Fc tag of the bought protein
T8 sequence (O95185 41-380 limits assumed): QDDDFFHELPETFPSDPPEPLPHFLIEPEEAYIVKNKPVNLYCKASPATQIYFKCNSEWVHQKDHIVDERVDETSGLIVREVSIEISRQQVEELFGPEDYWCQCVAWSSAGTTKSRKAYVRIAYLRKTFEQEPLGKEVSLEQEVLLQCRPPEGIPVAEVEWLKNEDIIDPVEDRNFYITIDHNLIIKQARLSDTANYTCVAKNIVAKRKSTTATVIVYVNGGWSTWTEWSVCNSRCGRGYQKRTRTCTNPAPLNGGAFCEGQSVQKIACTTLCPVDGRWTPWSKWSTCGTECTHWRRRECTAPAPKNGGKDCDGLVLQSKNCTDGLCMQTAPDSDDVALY

T2 sequence (O60469 18-2012): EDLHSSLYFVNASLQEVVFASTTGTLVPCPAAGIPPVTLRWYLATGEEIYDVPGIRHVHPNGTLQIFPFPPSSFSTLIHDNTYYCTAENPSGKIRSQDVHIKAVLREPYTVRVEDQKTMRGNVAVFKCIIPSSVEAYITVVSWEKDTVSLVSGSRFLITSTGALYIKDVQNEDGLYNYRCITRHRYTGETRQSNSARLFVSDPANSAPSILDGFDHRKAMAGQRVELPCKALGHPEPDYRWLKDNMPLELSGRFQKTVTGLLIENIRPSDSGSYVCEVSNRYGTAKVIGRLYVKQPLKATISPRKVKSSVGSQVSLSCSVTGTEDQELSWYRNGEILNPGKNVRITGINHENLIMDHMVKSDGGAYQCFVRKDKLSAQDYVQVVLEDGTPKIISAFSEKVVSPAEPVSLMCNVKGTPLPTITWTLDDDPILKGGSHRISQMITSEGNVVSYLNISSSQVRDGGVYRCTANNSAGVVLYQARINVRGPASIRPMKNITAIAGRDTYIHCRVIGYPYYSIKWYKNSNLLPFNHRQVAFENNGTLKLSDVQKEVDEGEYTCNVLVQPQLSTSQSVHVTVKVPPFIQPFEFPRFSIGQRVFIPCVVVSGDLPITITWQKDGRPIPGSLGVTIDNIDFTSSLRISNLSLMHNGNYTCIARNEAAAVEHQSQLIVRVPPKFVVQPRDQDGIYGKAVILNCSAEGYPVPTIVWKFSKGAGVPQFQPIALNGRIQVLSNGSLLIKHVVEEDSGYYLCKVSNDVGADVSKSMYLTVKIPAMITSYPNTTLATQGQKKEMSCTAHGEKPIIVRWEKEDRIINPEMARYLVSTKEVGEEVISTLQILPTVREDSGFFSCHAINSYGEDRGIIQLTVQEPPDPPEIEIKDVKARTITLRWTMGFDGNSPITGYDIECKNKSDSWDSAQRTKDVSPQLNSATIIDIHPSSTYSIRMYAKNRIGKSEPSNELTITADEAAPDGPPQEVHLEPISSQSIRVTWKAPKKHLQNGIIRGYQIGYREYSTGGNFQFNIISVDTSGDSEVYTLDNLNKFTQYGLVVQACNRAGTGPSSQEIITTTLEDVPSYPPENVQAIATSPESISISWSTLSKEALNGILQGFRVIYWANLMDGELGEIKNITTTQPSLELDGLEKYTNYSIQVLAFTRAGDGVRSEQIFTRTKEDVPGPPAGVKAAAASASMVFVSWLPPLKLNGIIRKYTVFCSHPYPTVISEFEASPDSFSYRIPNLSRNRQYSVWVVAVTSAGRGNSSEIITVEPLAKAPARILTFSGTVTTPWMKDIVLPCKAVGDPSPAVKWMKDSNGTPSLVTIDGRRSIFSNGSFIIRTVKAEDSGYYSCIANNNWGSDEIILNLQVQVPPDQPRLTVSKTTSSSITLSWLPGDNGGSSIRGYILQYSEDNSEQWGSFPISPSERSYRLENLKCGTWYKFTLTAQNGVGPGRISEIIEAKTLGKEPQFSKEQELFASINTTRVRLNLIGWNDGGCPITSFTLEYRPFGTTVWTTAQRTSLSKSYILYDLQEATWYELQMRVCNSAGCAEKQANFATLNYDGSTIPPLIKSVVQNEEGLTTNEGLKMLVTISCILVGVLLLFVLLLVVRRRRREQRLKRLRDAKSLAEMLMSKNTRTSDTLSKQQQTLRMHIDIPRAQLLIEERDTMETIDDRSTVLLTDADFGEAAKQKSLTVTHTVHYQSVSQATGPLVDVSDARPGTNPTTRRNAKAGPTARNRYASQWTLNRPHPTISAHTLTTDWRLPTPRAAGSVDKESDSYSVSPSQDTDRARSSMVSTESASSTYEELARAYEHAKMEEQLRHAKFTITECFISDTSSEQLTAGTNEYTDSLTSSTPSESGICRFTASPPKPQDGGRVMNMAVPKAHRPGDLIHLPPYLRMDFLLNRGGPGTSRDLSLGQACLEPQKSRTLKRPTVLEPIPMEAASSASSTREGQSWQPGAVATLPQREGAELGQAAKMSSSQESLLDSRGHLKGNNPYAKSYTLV
T4 sequence (P43146 other isoform, or with tags, fused parts or gaps): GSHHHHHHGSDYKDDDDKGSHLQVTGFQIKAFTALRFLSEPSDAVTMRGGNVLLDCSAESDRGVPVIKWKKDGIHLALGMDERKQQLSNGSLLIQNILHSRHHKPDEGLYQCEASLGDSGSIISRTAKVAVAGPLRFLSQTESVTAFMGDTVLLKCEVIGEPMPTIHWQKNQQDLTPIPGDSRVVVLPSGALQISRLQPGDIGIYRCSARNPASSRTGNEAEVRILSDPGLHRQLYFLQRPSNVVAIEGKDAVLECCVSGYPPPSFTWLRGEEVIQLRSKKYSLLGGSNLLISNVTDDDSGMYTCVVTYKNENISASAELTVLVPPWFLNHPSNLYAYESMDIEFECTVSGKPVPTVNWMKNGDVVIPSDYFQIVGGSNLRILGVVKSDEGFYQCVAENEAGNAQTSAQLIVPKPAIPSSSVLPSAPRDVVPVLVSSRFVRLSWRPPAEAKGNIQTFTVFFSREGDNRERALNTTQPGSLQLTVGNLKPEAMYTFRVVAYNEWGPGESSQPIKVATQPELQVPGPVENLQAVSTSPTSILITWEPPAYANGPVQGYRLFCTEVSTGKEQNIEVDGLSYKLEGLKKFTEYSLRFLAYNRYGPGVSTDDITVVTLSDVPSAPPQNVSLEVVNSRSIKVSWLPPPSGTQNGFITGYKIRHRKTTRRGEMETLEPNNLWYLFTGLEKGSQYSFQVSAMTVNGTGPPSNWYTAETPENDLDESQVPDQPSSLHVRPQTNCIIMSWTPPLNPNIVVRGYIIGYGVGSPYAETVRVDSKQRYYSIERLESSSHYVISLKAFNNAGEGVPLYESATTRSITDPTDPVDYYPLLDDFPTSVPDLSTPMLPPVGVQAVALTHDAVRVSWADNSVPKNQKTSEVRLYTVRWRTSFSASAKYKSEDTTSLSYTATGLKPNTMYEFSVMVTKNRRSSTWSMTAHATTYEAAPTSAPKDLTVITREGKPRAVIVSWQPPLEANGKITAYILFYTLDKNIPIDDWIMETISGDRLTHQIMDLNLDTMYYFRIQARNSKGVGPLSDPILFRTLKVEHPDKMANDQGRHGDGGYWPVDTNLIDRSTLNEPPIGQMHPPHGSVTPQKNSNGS
T3 sequence (Q6UXZ4 other isoform, or with tags, fused parts or gaps): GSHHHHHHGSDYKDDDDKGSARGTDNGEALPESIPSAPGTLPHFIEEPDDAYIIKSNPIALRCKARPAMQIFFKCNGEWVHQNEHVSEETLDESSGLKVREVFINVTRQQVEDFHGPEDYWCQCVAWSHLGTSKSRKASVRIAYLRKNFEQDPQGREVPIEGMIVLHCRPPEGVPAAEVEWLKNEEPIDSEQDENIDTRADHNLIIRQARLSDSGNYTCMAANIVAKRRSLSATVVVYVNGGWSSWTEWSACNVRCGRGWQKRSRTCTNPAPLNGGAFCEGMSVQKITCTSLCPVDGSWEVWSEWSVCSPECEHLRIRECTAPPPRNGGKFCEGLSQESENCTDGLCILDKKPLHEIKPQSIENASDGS
T6 sequence (Q6ZN44 other isoform, or with tags, fused parts or gaps): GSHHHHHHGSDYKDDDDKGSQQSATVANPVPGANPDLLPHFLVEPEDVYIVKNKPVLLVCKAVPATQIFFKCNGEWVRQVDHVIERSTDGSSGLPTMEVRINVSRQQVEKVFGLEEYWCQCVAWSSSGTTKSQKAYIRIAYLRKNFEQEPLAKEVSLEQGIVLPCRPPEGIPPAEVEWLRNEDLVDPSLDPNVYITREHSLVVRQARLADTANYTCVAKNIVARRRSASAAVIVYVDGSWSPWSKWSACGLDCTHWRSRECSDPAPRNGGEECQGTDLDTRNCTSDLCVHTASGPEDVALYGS

binding result [1]: no binding
binding result [2]: no binding
binding result [3]: no binding (tested: up to 100 nM)
binding result [4]: no binding (tested: up to 100 nM)
binding result [5]: no binding (tested: up to 100 nM)
binding result [6]: no binding (tested: up to 100 nM)
binding result [7]: no binding (tested: up to 100 nM)
EC50 [8]: 8 nM
B1: ATL_0006178 (antibody, IgG1, V domains shown)
VH: QVQLQESGPGLVKPSETLSLTCTVSGGSISSYFWSWIRQPPGKGLEWIGYIHYSGTTNQNPSLKSRVTISVDKSKNQFSLKLSSVTAADTAVYYCARGRGMATLPFDYWGQGTLVTVSS
VL: not shown
notes: Combination variant of ATL_5262 (T82K, Q67 kept, N58Y); also called ATL_6178; ATL6178
